Data from US20240398896A1, “INFLAMMASOME INHIBITION” (National University of Singapore, priority 2021, published 2024).

Assays:
[1] = test system: peritonitis induced by MSU crystals; experiment: Peritonitis induced by MSU crystals in bat ASC2/rtTA mice; assay type: in vivo, mouse; conditions: bat ASC2/rtTA vs WT mice, oral Dox 7 days, 200 μg MSU crystals i.p., 4 h
NLRP3 inflammasome [2] = biological target: T1, NLRP3 inflammasome (Homo sapiens, UniProt Q9ULZ3); experiment: ASC speck and filament formation in HEK293T cells reconstituted with human NLRP3-mCitrine and human ASC-mPlum (ImageStream, confocal); assay type: cell-based; design: expressed in transfected cells; host or cells: HEK293T
Description: (§1) Inflammasome activation assays.
(§2) ImageStream imaging flow cytometry. […] Nuclei were stained with DAPI.
Confocal imaging. […] At 48 h post-transfection, cells were fixed with 10% formalin for 15 min at room temperature. DAPI (1:2000 dilution) was used for nuclear staining. All samples were then mounted and examined using the Leica TCS SP8 confocal microscope.

NLRP3 inflammasome [3] = biological target: T1, NLRP3 inflammasome; experiment: Inflammasome activation in LPS-primed THP-1 macrophages stably expressing ASC2, stimulated with nigericin; assay type: cell-based; design: endogenous in cells; host or cells: THP-1 macrophages (PMA-differentiated, LPS-primed); conditions: THP-1 macrophages, ASC2-LSSmOrange, LPS 3 h
Source text: Generation of THP-1 and IMACs stable cells. […] Single cell clones were generated for THP-1 cells stably expressing ASC2-LSSmOrange.
as §1
ImageStream imaging flow cytometry.

human ASC = biological target: T2, human ASC (Homo sapiens, UniProt Q9ULZ3); experiment: Co-immunoprecipitation of ASC2-His with human ASC-Flag from HEK293T cells; assay type: binding; conditions: 0.25 μg bat or hupa4 ASC2 vs 3 μg human ASC2 transfected, FIG. 26A
T2 construct: expressed in transfected cells; host or cells: HEK293T
Description: Co-immunoprecipitation. HEK293T cells were transfected in 6-well plate with plasmids encoding His-tagged empty vector (His alone), bat ASC2, human ASC2, and Hupa4 ASC2 along with Flag-tagged human or bat ASC. 3 μg human ASC2, in contrast to 0.25 μg control, bat or hupa4 ASC2, were transfected to normalize the expression. At 48 h post-transfection, cells were lysed in IP lysis buffer (Pierce) according to manufacturer's protocol and centrifuged at 500 g for 10 minutes at 4° C. The supernatants were subjected to immunoprecipitation by incubation for 16 hours at 4° C. with anti-Flag (Sigma) incubated magnetic beads, followed by washing three times with TBS containing 0.05% Tween 20 and once with purified water. Bound proteins were separated by 15% SDS-PAGE, followed by immunoblotting analysis with the indicated antibodies.

NLRP3 inflammasome [4] = biological target: T3, NLRP3 inflammasome (Mus musculus, UniProt Q9EPB4); experiment: Inflammasome activation in LPS-primed BMDMs of WT or bat ASC2/rtTA mice stimulated with nigericin; conditions: Dox-induced bat ASC2, LPS 3 h
T3 sequence (Q9EPB4 1-193): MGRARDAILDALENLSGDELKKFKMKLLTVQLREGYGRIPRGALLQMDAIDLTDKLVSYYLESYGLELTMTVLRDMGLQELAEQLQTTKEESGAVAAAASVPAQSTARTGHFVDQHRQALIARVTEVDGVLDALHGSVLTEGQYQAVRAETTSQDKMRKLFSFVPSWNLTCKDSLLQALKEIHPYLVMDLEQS

NLRP3 inflammasome [5] = biological target: T1, NLRP3 inflammasome; experiment: ASC speck formation by flow cytometry in reconstituted HEK293T cells (human NLRP3-mCitrine, human ASC-mPlum) with ASC2 of various species; assay type: cell-based; design: expressed in transfected cells; host or cells: HEK293T; conditions: 50 ng ASC2-LSSmOrange, 48 h, FIG. 27A
Description: Plasmids. ASC2 sequences of 16 non-primate non-bat species were gene synthesized (IDT) and cloned into pQCXIH-LSSmOrange vector (Clontech). All constructs were prepared with endotoxin-free plasmid kits (Omega Bio-tek).
Transfection. HEK293T cells were seeded at 3×10^5/mL in 96-well plate overnight. […] 48 h post-transfection, cells were harvested for flow cytometry analysis.

bat NLRP3 inflammasome = experiment: ASC speck formation in HEK293T cells reconstituted with bat NLRP3-mCitrine and bat ASC-mPlum (ImageStream); assay type: cell-based, Pteropus alecto; conditions: bat NLRP3-mCitrine, bat ASC-mPlum, ASC2-LSSmOrange overexpressed, FIG. 3B
Source text: as §1, §2

NLRP3 inflammasome [6] = biological target: T3, NLRP3 inflammasome; experiment: Inflammasome activation in LPS-primed BMDMs of bat ASC2/rtTA mice stimulated with MSU crystals; assay type: cell-based; design: endogenous in cells; host or cells: BMDMs of C57BL/6 wild-type and bat ASC2/rtTA mice; conditions: Dox, LPS 3 h, MSU 16 h, FIG. 6D, 6E
Source text: as §1

[7] = test system: Pteropine orthoreovirus 3 (PRV3M); assay type: cell-based, mouse; conditions: bat ASC2/rtTA vs WT BMDMs
IAV = assay type: cell-based, mouse

T1 sequence (Q9ULZ3 whole entry): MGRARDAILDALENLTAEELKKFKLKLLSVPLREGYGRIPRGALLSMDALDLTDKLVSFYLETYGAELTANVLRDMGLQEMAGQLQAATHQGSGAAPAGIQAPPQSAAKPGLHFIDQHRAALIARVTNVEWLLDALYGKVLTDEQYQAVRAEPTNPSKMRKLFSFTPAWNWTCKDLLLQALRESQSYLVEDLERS
T2 sequence (Q9ULZ3 whole entry): as above

B1: bat ASC2: ASC2 (PYRIN-only protein) of the bat Pteropus alecto, SEQ ID NO:11; expressed from vectors or as Dox-inducible transgene (protein)
chain: MGKKRDAILEALENLTADELKKFKLKLGAAPLRQGFRNIPRGALGPLDAVDLTDKLVAFYCEDYGAELTAVVLRDIGMQEEAERLQGVA
Recruitment of neutrophils and inflammatory monocytes (peritoneal lavage) ([1]; FIG. 8B, 8C): significantly reduced
IL-1β release in the peritoneal lavage ([1]; FIG. 8D): decreased
ASC2 filament formation / distribution (NLRP3 inflammasome [2]; HEK293T, ImageStream and confocal): formed fine and long filaments
Co-localization with human ASC (NLRP3 inflammasome [2]; HEK293T, imaging, FIG. 3A): co-localization between bat ASC2 and human ASC
ASC speck formation (human NLRP3 inflammasome activation) (NLRP3 inflammasome [2]; HEK293T, human NLRP3-mCitrine, human ASC-mPlum, 50 ng ASC2-LSSmOrange, 48 h post-transfection): suppressed the activation of human NLRP3
Potency in inhibiting human NLRP3 inflammasome compared with human ASC2 (NLRP3 inflammasome [2]; expression normalized by gating equal signal intensity, FIG. 3C): significantly more potent
Pyroptotic cell death (LDH release) (NLRP3 inflammasome [3]; nigericin 2 h, compared with human ASC2, FIG. 3E): significantly more downstream inhibition
Secretion of IL-1β in the supernatants (NLRP3 inflammasome [3]; nigericin 2 h, compared with human ASC2, FIG. 3F): significantly more downstream inhibition
Induction of ASC specks (NLRP3 inflammasome [3]; nigericin, FIG. 4B, 4C): inhibited the induction of ASC specks more potently than human ASC2
Interaction with human ASC (co-IP) (human ASC): interact strongly with human ASC
ASC speck formation (NLRP3 inflammasome [4]; nigericin 30 min, FIG. 6B, 6C): reduction of ASC speck formation
Pyroptotic cell death (LDH release) (NLRP3 inflammasome [4]; nigericin 1 h, FIG. 5B): reduction
IL-1β secretion (NLRP3 inflammasome [4]; nigericin 1 h, FIG. 5C): reduction
Effect on inflammasome activation (ASC speck formation) (NLRP3 inflammasome [5]): inhibitory effect
ASC speck formation (bat NLRP3 inflammasome activation) (bat NLRP3 inflammasome): inhibited bat NLRP3 inflammasome
Activation of NLRP3 inflammasome (LDH release, IL-1β) (NLRP3 inflammasome [6]): suppressed the activation
IL-1β secretion triggered by PRV3M ([7]; LPS 3 h, PRV3M MOI=5, 24 h, Dox, FIG. 10G): substantially inhibited
Viral load for PRV3M ([7]; MOI=5, 24 h, FIG. 10E): without affecting the viral load
In vitro IL-1β response to IAV infection (IAV): significantly lower
Viral titres in supernatants (IAV): no obvious difference
